Substrate in series [1]: CC(C)=CCC/C(C)=C/CC/C(C)=C/CO[P@@](=O)(O)OP(=O)(O)O
Nature of the series: GC-MS of hexane-extracted product; Michaelis-Menten fit. It is filed as biochemical, Tripterygium wilfordii. To be noted: 200 mM K+, pH 7.5, 30 °C, 10 min, Mg2+ 10 mM in text (20 mM in Figure 5 legend), product (E)-nerolidol.

Substrate in series [2]: CC(C)=CCC/C(C)=C/CC/C(C)=C/CC/C(C)=C/COP(=O)(O)OP(=O)(O)O
The series is described as above. To be noted: pH 7.5, 30 °C, 10 min, Mg2+ 10 mM in text (20 mM in Figure 5 legend), no added K+ stated, product (E,E)-geranyllinalool. The format is biochemical, Tripterygium wilfordii.

B1: TwNES (Tripterygium wilfordii) (protein)
chain: MAFFGSSRSSIIPLKTISQIVTADSTNKRGTVDSNHKSAPTTPLNDRICTEHAHKVKDFKQIINIAGEDPSEGLAIIDAVQRLGVDHHFQDEIHTILQKHYTLATGTTTHGDCMITSLRFRLLRQEGYYVSADVFEGLKDEEGKFDQNLSGDIKGLMALYEASQLSMEGENILDEARDYSSRLLNECVTQLDHDQARIVEHTLTHPHHKSLARFMAKNFLRDFHGTNGWIDDLKKLAKVDFDMAQSTYQKEVVQISQWWKELGLAEELKFARDQPVKWYIWTTTCHQDPSFSELRINLTKPISFVYLIDDIFDVYGTPQEVTDFTEAVDRWDHDAIDQLPYYMKICFKALDDITNEISYKVYKQHGWNPLDSLRKSWGRLCNAFLTEAQWFASGHLPKAEEYLENGIISSGVPVVLLHLFFLLGEGVTQKSVEMIDNTPAIVSAAAAILRLWDDLGSAKDEDQDGKDGSYLACYTNENPGCSLEDAEKHVKSKICDEWKQLNKECLSQKNPFSPSFLKACLNVSRMVPLMYEYDENRRLPRLEEFLKSILIK
notes: MBP fusion (pMAL-c2X) from E. coli Transetta (DE3), amylose resin; tag cleavage not mentioned; gene synthesized
As for B1, the Km in series [1] worked out at 12.700 µM.

B2: TwGES1 (Tripterygium wilfordii) (protein)
chain: MDFSDSSIISLVDKIKVEMFVDMDVYSFVAPSAYDTAWLAMVPDSRSPVQPLFMDCLDWVLNNQREEGFWGDIDGHGMPAIESLTSTLACLIALKKWNVGESAIQKGLDFVRENAEMYIEEIKDCCPRRFAVIFPAMLEQASSLGLDNILPNHVKDTVHVMDIFIEHRRIVEKEELVETYHYPPLLAYLEALPPNKIDKDQIVTHLSSDGSLFQSPSATASAFMITGNKDCLAYLKAIIQRCPNGVPATYPIDEDLIRLCMVNHLQRLGLAEHFTKEIKNMLTSVHRNYSTNHRSTVKDSNLLHLYKDSLAFWLLRMNGYIVSPGSFCWFMQRGDIKDRIENNYYDDDFSSVMLNVYKATDLMFPGEEDQLEEARCFARKLLENVISTTSGNQNHLHKLIGHELKTPWLARLDHLEHKMWITQEHDSTLLWMGKFSFHRLSYDNSERLTQLAVQNYKYRQSIYRKELVELKRWSREWGLSEMGFGREKTTYCYFVVAASTSLPKHSDVRLIAAKIGILITVADDFFDEHASLDELQNLTHAIQRWDGKGLSGHSRTIFEVLDDLVREIAKKYKEQQEGIDVSDSLKNLWYETFLAWLVESQWSKNGHIPSMDEYIETGMISIASHTLLLPASCFLNPSLAYHQLKPLEYENITKLLMLITRLLNDTQSYQKEQKSGKKNFVLLYLKENPEAEIEDAIEYVGEIIEKKKKEFFEYALMDGLSELPKECRHLHLACLKVYQMLFNSSNRYDSNTELIQDIQEAFYQSPDPEIGVSSSKSSSIKSTKKPVSLPQHLSFKKQNNQTTSYYHSSFDYRGSNNIAVKWASWPKWRVDGYNKSMFVTPKFSPCFI
notes: MBP fusion (pMAL-c2X) from E. coli Transetta (DE3), amylose resin; tag cleavage not mentioned
Take B2: the Km in series [2] is 2.039 µM.

A word on the Km: it is the concentration of substrate that gives half-maximal velocity.
